Kd data for three molecules are collected here from patent publication US20220119488A1, “BICYCLIC PEPTIDE LIGANDS SPECIFIC FOR INTEGRIN ALPHA-V-BETA-3” (priority 2019, published 2022).

Numbered stars: 1 amine (or outer) side, 2 acyl side, 3 side chain; on linkers, the order of the positions; unused ones are H or OH. Bridge positions count the residues as written; N and C are the ends. Square brackets hold non-standard residues; d marks the D form. Ends that are not written are not given here. TBMB = c1c(C[*:1])cc(C[*:3])cc1C[*:2]; Fl = fluorescein; Sar = CNCC(=O)O

Assay [1] addresses T1, human integrin αvβ3 (human, UniProt P06756 31-992; P05106 27-718, limits assumed). Briefly: human FP direct binding; n=2.
For assay [2], the target named is T1, human integrin αvβ3. Nature of the assay: human FP direct binding; column 'Mean', n=2.
Assay [3] has as its target T1, human integrin αvβ3. Briefly: human FP direct binding; column 'Mean', n=9.

T1 sequence (P06756 31-992 limits assumed, chain 1 of 2): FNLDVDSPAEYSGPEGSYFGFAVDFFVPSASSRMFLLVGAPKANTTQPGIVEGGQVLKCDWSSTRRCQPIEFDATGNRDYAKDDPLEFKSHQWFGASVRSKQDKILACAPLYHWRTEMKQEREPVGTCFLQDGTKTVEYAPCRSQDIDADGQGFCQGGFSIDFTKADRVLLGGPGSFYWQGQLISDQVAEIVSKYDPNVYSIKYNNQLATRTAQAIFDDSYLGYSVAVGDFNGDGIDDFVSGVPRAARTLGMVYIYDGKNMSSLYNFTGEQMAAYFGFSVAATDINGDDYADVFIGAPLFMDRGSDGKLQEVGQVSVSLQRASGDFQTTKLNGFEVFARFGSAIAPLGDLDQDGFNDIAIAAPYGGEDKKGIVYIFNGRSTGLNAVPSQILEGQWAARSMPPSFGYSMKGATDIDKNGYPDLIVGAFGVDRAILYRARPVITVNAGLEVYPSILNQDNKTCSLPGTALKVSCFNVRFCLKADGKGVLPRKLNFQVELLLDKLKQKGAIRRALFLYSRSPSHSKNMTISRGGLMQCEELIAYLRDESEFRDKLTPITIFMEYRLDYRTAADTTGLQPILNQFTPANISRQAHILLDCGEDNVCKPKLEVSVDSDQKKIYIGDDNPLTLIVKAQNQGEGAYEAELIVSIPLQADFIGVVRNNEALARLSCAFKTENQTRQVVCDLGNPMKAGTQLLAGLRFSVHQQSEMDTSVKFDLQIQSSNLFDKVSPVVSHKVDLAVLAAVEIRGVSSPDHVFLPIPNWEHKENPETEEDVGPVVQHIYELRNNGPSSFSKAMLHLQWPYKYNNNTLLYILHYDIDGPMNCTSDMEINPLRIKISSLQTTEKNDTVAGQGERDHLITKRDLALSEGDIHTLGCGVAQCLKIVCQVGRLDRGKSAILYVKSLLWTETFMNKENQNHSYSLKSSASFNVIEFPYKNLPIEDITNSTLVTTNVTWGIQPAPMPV
T1 sequence (P05106 27-718 limits assumed, chain 2 of 2): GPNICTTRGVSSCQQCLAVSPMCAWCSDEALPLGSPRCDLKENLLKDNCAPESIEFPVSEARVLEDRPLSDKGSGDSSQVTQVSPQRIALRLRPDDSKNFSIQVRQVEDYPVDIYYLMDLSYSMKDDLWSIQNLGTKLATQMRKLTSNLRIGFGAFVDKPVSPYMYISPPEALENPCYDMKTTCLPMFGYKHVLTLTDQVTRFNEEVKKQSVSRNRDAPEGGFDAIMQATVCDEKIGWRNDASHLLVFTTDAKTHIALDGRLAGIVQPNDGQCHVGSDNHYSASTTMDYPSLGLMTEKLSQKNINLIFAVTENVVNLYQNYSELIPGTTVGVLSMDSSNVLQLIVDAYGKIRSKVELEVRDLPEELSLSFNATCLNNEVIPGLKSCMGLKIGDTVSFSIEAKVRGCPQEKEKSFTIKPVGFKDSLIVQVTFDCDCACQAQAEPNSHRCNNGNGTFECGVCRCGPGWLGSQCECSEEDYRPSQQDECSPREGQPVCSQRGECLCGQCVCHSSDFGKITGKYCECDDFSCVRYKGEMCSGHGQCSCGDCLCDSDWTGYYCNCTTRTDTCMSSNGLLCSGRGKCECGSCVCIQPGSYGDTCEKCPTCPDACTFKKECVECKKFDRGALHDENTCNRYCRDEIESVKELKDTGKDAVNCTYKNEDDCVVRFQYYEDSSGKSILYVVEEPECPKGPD

In the case of Fl-G[Sar][Sar][Sar][Sar][Sar]ACLDHMECRGDMDC (linker 8-14-20 via TBMB, Fluorescent bicyclic peptide) [BCY2573], the Kd with human integrin αvβ3 [1] and in the assay with human integrin αvβ3 [2] was 1 nM in each case.

B1: BCY2572 (peptide)
peptide: ACLDHMECRGDMDCAXXXXXXK
modifications: Sar6 (six sarcosines); fluorescein (Fl) on the C-terminal K; Ci, Cii and Ciii bound to the TBMB scaffold
notes: Fluorescent bicyclic peptide
Consider B1, for which, in the assay with human integrin αvβ3 [3], binding was characterised by a dissociation constant (Kd) of 9 nM.

B2: BCY2577 (peptide)
peptide: Ac-CILRPNCDLDGRCA[Sar][Sar][Sar][Sar][Sar][Sar]K
modifications: linker 1-7-13 via TBMB; not fully specified (residue 21); also: Fl on the C-terminal K
notes: Fluorescent bicyclic peptide
As for B2, the Kd with human integrin αvβ3 [1] and with human integrin αvβ3 [2] was 2 nM throughout.
